Data from paper PMC2692298 (Science signaling, 2008).

Target: stromal cell derived factor-1 (SDF-1, also known as CXCL12), wild type (UniProt P48061 22-93)

## GSMEGISIYTSDNYTEEMGSGDYDSMKEPAFREENANFNK (sulfotyrosine at positions 7, 12 and 21) [CXCR4 N-terminal peptide p38-sY3 (sulfotyrosine at positions 7, 12 and 21)]
  Kd: 0.2 ± 0.2 µM
  fold tighter binding than the unsulfated peptide p38: ~20 fold
